Assay results as given in article PMC9464592 (Nature, 2022).

Experiments:
Experiment in all cases: SEC
WDR24 ∆CTD = molecular target: T1, WDR24 ∆CTD (human, UniProt Q96S15 1-700)
T1 sequence (looked up): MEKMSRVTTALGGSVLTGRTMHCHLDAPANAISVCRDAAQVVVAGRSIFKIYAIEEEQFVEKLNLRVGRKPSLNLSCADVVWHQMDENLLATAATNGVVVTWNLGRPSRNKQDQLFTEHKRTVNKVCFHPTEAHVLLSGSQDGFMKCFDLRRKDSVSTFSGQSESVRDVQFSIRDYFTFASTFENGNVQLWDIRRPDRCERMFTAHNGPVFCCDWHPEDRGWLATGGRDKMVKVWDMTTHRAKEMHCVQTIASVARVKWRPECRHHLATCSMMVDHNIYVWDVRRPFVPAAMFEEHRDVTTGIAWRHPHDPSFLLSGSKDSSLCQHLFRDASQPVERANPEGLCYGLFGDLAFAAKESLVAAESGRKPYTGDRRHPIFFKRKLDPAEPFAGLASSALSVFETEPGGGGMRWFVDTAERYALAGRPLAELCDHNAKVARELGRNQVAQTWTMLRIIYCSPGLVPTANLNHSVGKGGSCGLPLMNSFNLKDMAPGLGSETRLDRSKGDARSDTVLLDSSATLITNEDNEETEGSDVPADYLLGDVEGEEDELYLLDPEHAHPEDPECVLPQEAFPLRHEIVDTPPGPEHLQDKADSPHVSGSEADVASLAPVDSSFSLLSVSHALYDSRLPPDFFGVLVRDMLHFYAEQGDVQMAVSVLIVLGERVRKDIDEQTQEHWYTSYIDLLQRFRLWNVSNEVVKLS

WDR59 ∆CTD = molecular target: T2, WDR59 ∆CTD (human, UniProt Q6PJI9 1-890)
T2 sequence (looked up): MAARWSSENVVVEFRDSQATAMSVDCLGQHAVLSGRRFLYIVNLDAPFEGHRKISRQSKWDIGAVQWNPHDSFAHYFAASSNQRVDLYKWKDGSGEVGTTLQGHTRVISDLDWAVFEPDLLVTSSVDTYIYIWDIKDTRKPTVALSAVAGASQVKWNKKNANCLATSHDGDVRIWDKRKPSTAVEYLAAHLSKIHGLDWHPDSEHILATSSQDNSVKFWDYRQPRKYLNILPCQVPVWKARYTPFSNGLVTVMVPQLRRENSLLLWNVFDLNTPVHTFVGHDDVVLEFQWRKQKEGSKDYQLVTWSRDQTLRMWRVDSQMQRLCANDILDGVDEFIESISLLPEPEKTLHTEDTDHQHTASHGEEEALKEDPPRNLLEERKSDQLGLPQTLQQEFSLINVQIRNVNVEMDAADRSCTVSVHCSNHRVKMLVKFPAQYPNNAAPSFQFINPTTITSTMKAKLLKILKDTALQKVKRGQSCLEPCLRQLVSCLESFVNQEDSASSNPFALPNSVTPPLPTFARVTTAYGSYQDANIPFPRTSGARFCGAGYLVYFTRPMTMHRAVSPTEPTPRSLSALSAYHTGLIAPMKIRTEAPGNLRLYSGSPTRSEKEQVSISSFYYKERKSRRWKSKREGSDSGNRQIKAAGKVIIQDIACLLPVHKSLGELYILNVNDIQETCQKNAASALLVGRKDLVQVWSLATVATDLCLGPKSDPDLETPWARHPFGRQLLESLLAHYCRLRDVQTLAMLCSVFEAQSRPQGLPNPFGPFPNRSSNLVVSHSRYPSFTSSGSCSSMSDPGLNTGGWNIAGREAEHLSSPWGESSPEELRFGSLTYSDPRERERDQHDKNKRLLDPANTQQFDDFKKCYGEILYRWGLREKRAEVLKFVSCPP

MIOS A560E = molecular target: T3, MIOS A560E (human, UniProt Q9NXC5 1-875, A560E)
T3 sequence: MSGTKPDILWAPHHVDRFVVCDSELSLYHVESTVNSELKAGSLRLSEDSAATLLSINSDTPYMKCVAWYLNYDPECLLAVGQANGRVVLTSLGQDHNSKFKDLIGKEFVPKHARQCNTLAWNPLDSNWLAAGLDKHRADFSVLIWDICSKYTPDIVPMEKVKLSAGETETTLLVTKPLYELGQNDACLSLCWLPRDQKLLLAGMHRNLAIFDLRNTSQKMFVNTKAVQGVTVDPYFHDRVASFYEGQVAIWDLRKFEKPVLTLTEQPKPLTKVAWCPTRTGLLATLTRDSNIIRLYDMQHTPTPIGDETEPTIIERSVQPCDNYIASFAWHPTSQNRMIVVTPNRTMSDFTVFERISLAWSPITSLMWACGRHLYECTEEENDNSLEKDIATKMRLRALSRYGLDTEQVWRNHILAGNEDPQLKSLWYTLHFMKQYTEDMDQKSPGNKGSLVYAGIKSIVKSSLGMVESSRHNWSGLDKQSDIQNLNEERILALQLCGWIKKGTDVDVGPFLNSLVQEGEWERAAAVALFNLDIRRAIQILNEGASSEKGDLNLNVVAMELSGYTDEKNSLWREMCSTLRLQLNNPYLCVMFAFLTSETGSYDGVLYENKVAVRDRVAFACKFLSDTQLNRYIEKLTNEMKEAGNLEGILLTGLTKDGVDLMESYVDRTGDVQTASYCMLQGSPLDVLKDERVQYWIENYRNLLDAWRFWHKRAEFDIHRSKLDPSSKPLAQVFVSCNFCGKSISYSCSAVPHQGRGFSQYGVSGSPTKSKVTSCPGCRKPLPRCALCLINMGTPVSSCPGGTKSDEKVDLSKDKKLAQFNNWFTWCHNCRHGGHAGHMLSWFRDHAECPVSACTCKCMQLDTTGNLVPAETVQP

Measured: binding result

B1: tag-free SEC13 (natural protein, human)
chain: MVSVINTVDTSHEDMIHDAQMDYYGTRLATCSSDRSVKIFDVRNGGQILIADLRGHEGPVWQVAWAHPMYGNILASCSYDRKVIIWREENGTWEKSHEHAGHDSSVNSVCWAPHDYGLILACGSSDGAISLLTYTGEGQWEVKKINNAHTIGCNAVSWAPAVVPGSLIDHPSGQKPNYIKRFASGGCDNLIKLWKEEEDGQWKEEQKLEAHSDWVRDVAWAPSIGLPTSTIASCSQDGRVFIWTCDDASSNTWSPKLLHKFNDVVWHVSWSITANILAVSGGDNKVTLWKESVDGQWVCISDVNKGQGSVSASVTEGQQNEQ
binds: all assays above
